{
  "source": "patent US20260242735A1",
  "about": "(UNIVERSIT T BASEL, published 2026)",
  "binders": {"B1": {"name": "Refmab #3 (antibody, V domains shown)", "VH": "QVQLVQSGAEVKKPGSSVKVSCKASGYTFTDYNMHWVRQAPGQGLEWIGYIYPYNGGTGYNQKFKSKATITADESTNTAYMELSSLRSEDTAVYYCARGRPAMDYWGQGTLVTVSS", "VL": "DIQMTQSPSSLSASVGDRVTITCRASESVDNYGISFMNWFQQKPGKAPKLLIYAASNQGSGVPSRFSGSGSGTDFTLTISSLQPDDFATYYCQQSKEVPWTFGQGTKVEIK", "notes": "In the alanine scan antibodies were used as IgG or Fab"}, "B2": {"name": "Refmab #2 (antibody, V domains shown)", "VH": "QVQLVQSGAEVKKPGSSVKVSCKASGGTFSDYAISWVRQAPGQGLEWMGRIIPILGVADYAQKFQGRVTITADKSTRTAYMELSSLRSEDTAVYYCARNWADAFDIWGQGTMVTVSS", "VL": "DIQLTQSPSSLSASVGDRVTITCRASQGISSVLAWYQQKPGKAPKLLIYDASSLESGVPSRFSGSGSGTDFTLTISSLQPEDFATYYCQQFDSSITFGQGTKLEIK", "notes": "as for B1"}},
  "test_in_all_cases": "alanine scan, flow cytometry, HEK293-T;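 note: antibody binding to each alanine-substituted CD33 mutant expressed transiently in HEK293-T, read as fluorescence minus background, mean of duplicates, relative to wild-type CD33 set as 100%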",
  "key": {"[1]": {"biological_target": "human CD33 T223A (human, UniProt P20138 18-364)", "sequence (P20138 18-364 T223A limits assumed)": "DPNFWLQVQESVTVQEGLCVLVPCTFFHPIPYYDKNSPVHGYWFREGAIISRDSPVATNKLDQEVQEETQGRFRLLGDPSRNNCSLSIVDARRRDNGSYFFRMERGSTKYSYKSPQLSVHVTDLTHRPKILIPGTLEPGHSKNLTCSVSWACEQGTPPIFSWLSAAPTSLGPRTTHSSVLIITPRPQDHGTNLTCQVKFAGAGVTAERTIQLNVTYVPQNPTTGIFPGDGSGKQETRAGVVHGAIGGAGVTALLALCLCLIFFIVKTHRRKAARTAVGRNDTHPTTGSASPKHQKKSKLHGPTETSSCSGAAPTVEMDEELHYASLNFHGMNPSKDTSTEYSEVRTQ"}, "[2]": {"biological_target": "human CD33 T211A (human, UniProt P20138 18-364)", "sequence (P20138 18-364 T211A limits assumed)": "as the sequence (P20138 18-364 T223A limits assumed) above, with T194A, A206T counted along it"}, "[3]": {"biological_target": "human CD33 A183S (human, UniProt P20138 18-364)", "sequence (P20138 18-364 A183S limits assumed)": "as the sequence (P20138 18-364 T223A limits assumed) above, with A166S, A206T counted along it"}, "[4]": {"biological_target": "human CD33 T240A (human, UniProt P20138 18-364)", "sequence (P20138 18-364 T240A limits assumed)": "as the sequence (P20138 18-364 T223A limits assumed) above, with A206T, T223A counted along it"}, "[5]": {"biological_target": "human CD33 I199A (human, UniProt P20138 18-364)", "sequence (P20138 18-364 I199A limits assumed)": "as the sequence (P20138 18-364 T223A limits assumed) above, with I182A, A206T counted along it"}, "[6]": {"biological_target": "human CD33 Q236A (human, UniProt P20138 18-364)", "sequence (P20138 18-364 Q236A limits assumed)": "as the sequence (P20138 18-364 T223A limits assumed) above, with A206T, Q219A counted along it"}, "[7]": {"biological_target": "human CD33 S181A (human, UniProt P20138 18-364)", "sequence (P20138 18-364 S181A limits assumed)": "as the sequence (P20138 18-364 T223A limits assumed) above, with S164A, A206T counted along it"}, "[8]": {"biological_target": "human CD33 P203A (human, UniProt P20138 18-364)", "sequence (P20138 18-364 P203A limits assumed)": "as the sequence (P20138 18-364 T223A limits assumed) above, with P186A, A206T counted along it"}, "[9]": {"biological_target": "human CD33 L197A (human, UniProt P20138 18-364)", "sequence (P20138 18-364 L197A limits assumed)": "as the sequence (P20138 18-364 T223A limits assumed) above, with L180A, A206T counted along it"}, "[10]": {"biological_target": "human CD33 G172A (human, UniProt P20138 18-364)", "sequence (P20138 18-364 G172A limits assumed)": "as the sequence (P20138 18-364 T223A limits assumed) above, with G155A, A206T counted along it"}, "[11]": {"biological_target": "human CD33 W179A (human, UniProt P20138 18-364)", "sequence (P20138 18-364 W179A limits assumed)": "as the sequence (P20138 18-364 T223A limits assumed) above, with W162A, A206T counted along it"}, "[12]": {"biological_target": "human CD33 Q204A (human, UniProt P20138 18-364)", "sequence (P20138 18-364 Q204A limits assumed)": "as the sequence (P20138 18-364 T223A limits assumed) above, with Q187A, A206T counted along it"}, "[13]": {"biological_target": "human CD33 T173A (human, UniProt P20138 18-364)", "sequence (P20138 18-364 T173A limits assumed)": "as the sequence (P20138 18-364 T223A limits assumed) above, with T156A, A206T counted along it"}, "[14]": {"biological_target": "human CD33 Y233A (human, UniProt P20138 18-364)", "sequence (P20138 18-364 Y233A limits assumed)": "as the sequence (P20138 18-364 T223A limits assumed) above, with A206T, Y216A counted along it"}, "[15]": {"biological_target": "human CD33 F177A (human, UniProt P20138 18-364)", "sequence (P20138 18-364 F177A limits assumed)": "as the sequence (P20138 18-364 T223A limits assumed) above, with F160A, A206T counted along it"}, "[16]": {"biological_target": "human CD33 P174A (human, UniProt P20138 18-364)", "sequence (P20138 18-364 P174A limits assumed)": "as the sequence (P20138 18-364 T223A limits assumed) above, with P157A, A206T counted along it"}, "[17]": {"biological_target": "human CD33 E224A (human, UniProt P20138 18-364)", "sequence (P20138 18-364 E224A limits assumed)": "as the sequence (P20138 18-364 T223A limits assumed) above, with A206T, E207A counted along it"}, "[18]": {"biological_target": "human CD33 V231A (human, UniProt P20138 18-364)", "sequence (P20138 18-364 V231A limits assumed)": "as the sequence (P20138 18-364 T223A limits assumed) above, with A206T, V214A counted along it"}, "[19]": {"biological_target": "human CD33 V196A (human, UniProt P20138 18-364)", "sequence (P20138 18-364 V196A limits assumed)": "as the sequence (P20138 18-364 T223A limits assumed) above, with V179A, A206T counted along it"}, "[20]": {"biological_target": "human CD33 P175A (human, UniProt P20138 18-364)", "sequence (P20138 18-364 P175A limits assumed)": "as the sequence (P20138 18-364 T223A limits assumed) above, with P158A, A206T counted along it"}},
  "data": [
    {"binder": "B1", "values": [
      {"measurement": "Mean % WT Binding", "setting": "[1]", "value": 93.5, "unit": "%"},
      {"measurement": "Mean % WT Binding", "setting": "[2]", "value": 96.2, "unit": "%"},
      {"measurement": "Mean % WT Binding", "setting": "[3]", "value": 117, "unit": "%"},
      {"measurement": "Mean % WT Binding", "setting": "[4]", "value": 97.9, "unit": "%"},
      {"measurement": "Mean % WT Binding", "setting": "[5]", "value": 112, "unit": "%"},
      {"measurement": "Mean % WT Binding", "setting": "[6]", "value": 104, "unit": "%"},
      {"measurement": "Mean % WT Binding", "setting": "[7]", "value": 128, "unit": "%"},
      {"measurement": "Mean % WT Binding", "setting": "[8]", "value": 105, "unit": "%"},
      {"measurement": "Mean % WT Binding", "setting": "[9]", "value": 91.4, "unit": "%"},
      {"measurement": "Mean % WT Binding", "setting": "[10]", "value": 107, "unit": "%"},
      {"measurement": "Mean % WT Binding", "setting": "[11]", "value": 103, "unit": "%"},
      {"measurement": "Mean % WT Binding", "setting": "[12]", "value": 126, "unit": "%"},
      {"measurement": "Mean % WT Binding", "setting": "[13]", "value": 97, "unit": "%"},
      {"measurement": "Mean % WT Binding", "setting": "[14]", "value": 146, "unit": "%"},
      {"measurement": "Mean % WT Binding", "setting": "[15]", "value": 60.4, "unit": "%"},
      {"measurement": "Mean % WT Binding", "setting": "[16]", "value": 110, "unit": "%"},
      {"measurement": "Mean % WT Binding", "setting": "[17]", "value": 83.2, "unit": "%"},
      {"measurement": "Mean % WT Binding", "setting": "[18]", "value": 153, "unit": "%"},
      {"measurement": "Mean % WT Binding", "setting": "[19]", "value": 105, "unit": "%"},
      {"measurement": "Mean % WT Binding", "setting": "[20]", "value": 106, "unit": "%"}
    ]},
    {"binder": "B2", "values": [
      {"measurement": "Mean % WT Binding", "setting": "[1]", "value": 126, "unit": "%"},
      {"measurement": "Mean % WT Binding", "setting": "[2]", "value": 111, "unit": "%"},
      {"measurement": "Mean % WT Binding", "setting": "[3]", "value": 119, "unit": "%"},
      {"measurement": "Mean % WT Binding", "setting": "[4]", "value": 111, "unit": "%"},
      {"measurement": "Mean % WT Binding", "setting": "[5]", "value": 125, "unit": "%"},
      {"measurement": "Mean % WT Binding", "setting": "[6]", "value": 111, "unit": "%"},
      {"measurement": "Mean % WT Binding", "setting": "[7]", "value": 116, "unit": "%"},
      {"measurement": "Mean % WT Binding", "setting": "[8]", "value": 109, "unit": "%"},
      {"measurement": "Mean % WT Binding", "setting": "[9]", "value": 125, "unit": "%"},
      {"measurement": "Mean % WT Binding", "setting": "[10]", "value": 109, "unit": "%"},
      {"measurement": "Mean % WT Binding", "setting": "[11]", "value": 113, "unit": "%"},
      {"measurement": "Mean % WT Binding", "setting": "[12]", "value": 112, "unit": "%"},
      {"measurement": "Mean % WT Binding", "setting": "[13]", "value": 134, "unit": "%"},
      {"measurement": "Mean % WT Binding", "setting": "[14]", "value": 107, "unit": "%"},
      {"measurement": "Mean % WT Binding", "setting": "[15]", "value": 67.5, "unit": "%"},
      {"measurement": "Mean % WT Binding", "setting": "[16]", "value": 117, "unit": "%"},
      {"measurement": "Mean % WT Binding", "setting": "[17]", "value": 102, "unit": "%"},
      {"measurement": "Mean % WT Binding", "setting": "[18]", "value": 112, "unit": "%"},
      {"measurement": "Mean % WT Binding", "setting": "[19]", "value": 106, "unit": "%"},
      {"measurement": "Mean % WT Binding", "setting": "[20]", "value": 103, "unit": "%"}
    ]}
  ]
}
